Assay results from patent publication US11110182B2, “Multifunctional RNA nanoparticles and methods for treating cancer and therapeutic resistant cancer” (University of Cincinnati, priority 2016, dated 2021).

System: BT474 cells
Assay: In vitro mammosphere culture assay, BT474 cells
Assay type: cell-based, human
Method: FIG. 4A) BT474 cells were treated with pRNA nanoparticles in combination with vehicle or 1 μM 4-hydroxy-tamoxifen (4-OHT) as indicated for 48 h, and assayed for cell viability by MTT assay. FIG. 4B) Cells were treated as above and the migration and FIG. 4C) invasion capabilities were examined. FIG. 4D) Cells were treated as above and assayed for in vitro mammosphere formation. FIG. 4E) The number of mammospheres was counted, and FIG. 4F) the mammosphere size was calculated. Scale bar: 10 μm.
Migration and metastasis assay. The 8-μm-pore-size polycarbonate membrane, which separates the two chambers of a 6.5-mm Transwell (Costar), was coated with or without 1:8 DMEM-diluted Matrigel (Corning). Transwell assay was performed as previously described.^57 Briefly, BT474 cells were treated with pRNAs alone or together with 4-hydroxy-tamoxifen (4-OHT) for 48 h and starved with serum-free DMEM containing 0.2% BSA overnight. On the next day, cells were collected and 2×10^5 cells were seeded to the upper chamber of Transwell. The lower chamber was filled with 600 μL DMEM medium containing 10% FBS. After incubation at 37° C. for 24 h, cells on the membranes were fixed and stained with 0.1% crystal violet in 20% ethanol solution. Cells at top side of membranes were removed completely, and cells at the bottom side were examined with an Olympus SZX12 microscope and counted. • Mammosphere culture and breast cancer stem cell analyses. BT474 cells were treated with pRNAs for 48 h. Then, cells were suspended in DMEM/F12 medium supplemented with 1×B27 (Thermo Fisher), 20 ng/mL bFGF and 20 ng/mL EGF (R&D), and added into 24-well ultralow attachment plates. After treatment with or without 1 μM 4-OHT for 7 days, mammosphere formation was recorded using an Axiovert S100 TV inverted microscope (Zeiss). Xenograft tumor tissues were cut into small pieces and digested with trypsin and collagenase at 37° C. for 1 h, and tumor cells were collected and rinsed with pre-cold PBS. All cells were stained with FITC-conjugated anti-CD44 antibody and PE-conjugated anti-CD24 antibody (BD Pharmingen) in the dark on ice for 30 min. After resuspension with 0.5 mL PBS buffer, CD44^+/CD24^−/low cell population was analyzed by flow cytometry. • Orthotopic xenograft breast tumor mouse model, in vivo imaging and anti-tumor therapy. […] The tumor volume was monitored every 3 days, and tumor size was calculated using the formula: volume=0.5×(width)^2×(length). […] After the tumor weights were recorded, part of the tumor tissues were digested with trypsin and collagenase, lysed for extraction of total proteins and RNAs, or fixed in 10% neutral buffered formalin along with organ tissues, respectively, for further western blot, real-time PCR and IHC studies, etc. […]

[1] = BT474, in combination with tamoxifen (1 μM 4-OHT, 7 days)

B1: pRNA-HER2apt-siMED1: 3-WJ pRNA nanoparticle bearing a HER2-targeting RNA aptamer and two different MED1 siRNAs; strands p1 SEQ ID NO: 3, p2 SEQ ID NO: 4 (nucleic acid)
chain 1: GGACAGUGAAAGUGAGUCAAAGGAUCAAUCAUGGCCAAAGAUGUUACUUUGAGAGCCUU
chain 2: GGCUCUCAAAGUAACAUCUAAGGCCAUGUGUAUGUGGGGGGAGGACGAUGCGGUCUGCUGUGCUUGAUAUGCCCCAGACGACUCGCCCCCCACAUACUUUGUUGAUCCAAUGACUCACUUUCACUGUCCUU
modifications: 2'-F modification; third strand may lack entry; pRNA-HER2apt-siMED1, p1; pRNA-HER2apt-siMED1, p2
greatly reduced: number of mammosphere formation [1] | size of mammospheres [1] | number of mammosphere formation (BT474, nanoparticles alone) | size of mammospheres (BT474, nanoparticles alone)
